The record followed here is article PMC10197057 (Microbial Cell Factories, 2023).

This experiment has as its target T1, lysozyme from chicken egg white (Gallus gallus, UniProt P00698).
T1 construct: lysozyme from chicken egg white (Sigma-Aldrich L4919); source: bought: Sigma-Aldrich (L4919)
As to the kind of experiment: BLI; BLItz system; nanobody (100 mg/L) loaded via His-tag on Anti-Penta-HIS (HIS1K) sensor; dilution series of antigen in solution; association 180 s, dissociation 300 s; sensor hydrated in PBS-T (0.1% Tween-20); reference without antigen; global fitting. Particulars: both partners purified. (BLI is a label-free optical method that tracks binding on a fibre tip over time.)

T1 sequence (P00698 19-147): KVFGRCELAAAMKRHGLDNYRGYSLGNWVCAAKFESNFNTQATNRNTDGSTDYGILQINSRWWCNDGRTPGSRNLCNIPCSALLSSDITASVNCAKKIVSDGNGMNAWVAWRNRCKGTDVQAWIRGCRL

B1: monovalent antilysozyme nanobody 1ZVH (VHH)
VHH: DVQLVESGGGSVQAGGSLRLSCAASGYIASINYLGWFRQAPGKEREGVAAVSPAGGTPYYADSVKGRFTVSLDNAENTVYLQMNSLKPEDTALYYCAAARQGWYIPLNSYGYNYWGQGTQVTVSS
notes: anti-lysozyme camelid VHH; also called anti-lysozyme VHH; not shown: CBH2 secretory signal, CBD-carrier polypeptide and KEX2 linker (RDKR), N-terminal, cleaved; His6, C-terminal, kept
As a reminder, the Kd is a measure of binding affinity in units of concentration. Low readings indicate a tighter complex, high ones a looser complex. On to B1, for which the Kd was determined as 1.5 nM.
